{"source": "paper PMC12365249", "molecular_target": "FOXA1 (UniProt P55317)", "experiment": "endogenous co-IP with FOXA1 antibody", "details": "reference: wild type; sites T603"}
{"substance": "MED15 (from UniProt Q96RN5) T603A knock-in", "values": [{"measurement": "binding against the reference", "value": "stronger"}]}
